± gives the uncertainty stated by the source.
Assay: self-splicing fitness, log relative to wild type (ln ratio); higher = more splicing; Tetrahymena group I intron in knt gene, E. coli kanamycin selection, DiMSum; sequences stand for … in CUCUCU…GGAGGGAAAAGUUAUCAGGCAUGCACCUGGUAGCUAGUCUUUAAACCAAUAGAUUGCAUCGGUUUAAAAGGCAAGACCGUCAAAUUGCGGGAAAGGGGUCAACAGCCGUUCAGUACCAAGUCUCAGGGGAAACUUUGAGAUGGCCUUGCAAAGGGUAUGGUAAUAAGCUGACGGACAUGGUCCUAACCACGCAGCCAAGUCCUAAGUCAACAGAUCUUCUGUUGAUAUGGAUGCAGUUCACAGACUAAAUGUCGGUCGGGGAAGAUGUAUUCUUCUCAUAAGAUAUAGUCGGACCUCUCCUUAAUGGGAGCUAGCGGAUGAAGUGAUGCAACACUGGAGCCGCUGGGAACUAAUUUGUAUGCGAAAGUAUAUUGAUUAGUUUUGGAGUACUCGUGGUCG
Procedure, shortened: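 The eight P1ex-region nucleotides of an intron in the knt kanamycin-resistance gene on pET-22b(+) were all randomised and the library put into E. coli BL21(DE3). Six replicate transformations were grown overnight at 37°C or 30°C on LB agar with or without 25 μg/mL kanamycin, together with 100 μg/mL carbenicillin, 50 μM IPTG and 0.2% rhamnose. Colonies were pooled and amplicon-sequenced on an Illumina HiSeq 2500. Fitness from DiMSum is the error-weighted combination of wild-type-normalised replicate fold changes, kanamycin over none.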

Sequence	self-splicing fitness (ln) (30 °C)	self-splicing fitness (ln) (37 °C)
AGCGAGCAAUAUUACGUUGU	-3.39 ± 0.13	-3.31 ± 0.15
GAGAAGCAAUAUUACGGCGC	0.341 ± 0.21	-0.241 ± 0.22
GUUUAGCAAUAUUACGUUAA	-1.87 ± 0.33	-1.68 ± 0.24
UCAAAGCAAUAUUACGGCCG	-0.434 ± 0.1	0.158 ± 0.17
AGGAAGCAAUAUUACGGAAU	-2.88 ± 0.22	-2.14 ± 0.3
GUGCAGCAAUAUUACGGCAA	0.24 ± 0.12	0.291 ± 0.15
AAACAGCAAUAUUACGACGC	-1.43 ± 0.081	-0.718 ± 0.096
ACACAGCAAUAUUACGCUCG	-0.365 ± 0.064	0.194 ± 0.085
UAAUAGCAAUAUUACGGUUC	-2.91 ± 0.29	
UGACAGCAAUAUUACGACAG	-0.934 ± 0.065	0.0335 ± 0.084
GAUAAGCAAUAUUACGUUAC	-2.69 ± 0.2	-2.09 ± 0.35
GUGUAGCAAUAUUACGAAGU	-2.86 ± 0.34	-1.67 ± 0.25
UACAAGCAAUAUUACGGUAC	-4.41 ± 0.31	-3.1 ± 0.33
UAUAAGCAAUAUUACGUCUG	-0.517 ± 0.081	0.316 ± 0.098
GAUCAGCAAUAUUACGAGGG	-1.99 ± 0.11	-2.17 ± 0.18
ACAAAGCAAUAUUACGAGGG	-3.39 ± 0.11	-2.14 ± 0.11
GGAUAGCAAUAUUACGUACU	-0.979 ± 0.096	0.0901 ± 0.14
AUCGAGCAAUAUUACGCGGA	-2.55 ± 0.17	-0.974 ± 0.11
GGAUAGCAAUAUUACGAGGA	-3.28 ± 0.25	-1.15 ± 0.17
AGAAAGCAAUAUUACGACCG	-0.595 ± 0.15	0.0491 ± 0.17
UAGAAGCAAUAUUACGAGCA	-1.27 ± 0.096	0.167 ± 0.1
GCCAAGCAAUAUUACGUCAG	-3.6 ± 0.23	-2.73 ± 0.28
GACAAGCAAUAUUACGUAGU	-3.92 ± 0.18	-1.65 ± 0.11
GGUUAGCAAUAUUACGUAGC	-2.18 ± 0.16	-1.97 ± 0.17
CAUCAGCAAUAUUACGAGUC	-4.85 ± 0.34	-1.6 ± 0.21
UGCUAGCAAUAUUACGAGAG	-2.79 ± 0.22	-2.13 ± 0.23

Sequence	self-splicing fitness (ln) (30 °C)	self-splicing fitness (ln) (37 °C)
CUCCAGCAAUAUUACGGGAG	-3.68 ± 0.15	-1.91 ± 0.16
CAAAAGCAAUAUUACGCGGG	-2.38 ± 0.11	-1.87 ± 0.13
UAGGAGCAAUAUUACGGACU	-3.22 ± 0.25	-2.41 ± 0.22
ACAGAGCAAUAUUACGUUGU	-3.88 ± 0.2	-2.34 ± 0.18
AGGCAGCAAUAUUACGAUGG	-3.56 ± 0.19	-2.44 ± 0.22
UCGCAGCAAUAUUACGACUC	-3.5 ± 0.27	-2.32 ± 0.27
ACAGAGCAAUAUUACGUUCG	-2.06 ± 0.11	-0.493 ± 0.12
ACAUAGCAAUAUUACGGCCU	-0.828 ± 0.074	0.129 ± 0.1
UACAAGCAAUAUUACGCGUG	-2.09 ± 0.11	-1.37 ± 0.098
AUUCAGCAAUAUUACGGUCA	-0.711 ± 0.12	-0.789 ± 0.11
GGCCAGCAAUAUUACGUCUU	-0.247 ± 0.081	-0.523 ± 0.082
AAGAAGCAAUAUUACGUGAU	-1.96 ± 0.11	-2.09 ± 0.11
GCUCAGCAAUAUUACGCAGU	-2.41 ± 0.15	-1.13 ± 0.14
CCUCAGCAAUAUUACGGUGG	-4.11 ± 0.16	-2.41 ± 0.16
UGUCAGCAAUAUUACGAUUA	-0.198 ± 0.061	0.519 ± 0.088
UCCGAGCAAUAUUACGAGGU	-3.89 ± 0.34	
GAUCAGCAAUAUUACGCAGU	-1.74 ± 0.083	-0.88 ± 0.12
AUACAGCAAUAUUACGGGCU	-2.77 ± 0.11	-1.29 ± 0.12
CGAAAGCAAUAUUACGCCGG	-0.615 ± 0.14	0.34 ± 0.17
CAUUAGCAAUAUUACGGAUC	-1.46 ± 0.12	-1.6 ± 0.16
UUACAGCAAUAUUACGCGGC	-2.62 ± 0.14	-2.03 ± 0.18
CCACAGCAAUAUUACGAUGC	-3.7 ± 0.17	-2.66 ± 0.21
GUGAAGCAAUAUUACGGUGG	-1.97 ± 0.098	-1.78 ± 0.16
GCAAAGCAAUAUUACGCUCC	-3.61 ± 0.34	-3.03 ± 0.43
UUGAAGCAAUAUUACGGUGG	-0.88 ± 0.059	-0.498 ± 0.11
CCGUAGCAAUAUUACGAGGA	-2.96 ± 0.24	-1.24 ± 0.18

Sequence	self-splicing fitness (ln) (30 °C)	self-splicing fitness (ln) (37 °C)
UCGGAGCAAUAUUACGUACG	-1.21 ± 0.14	-0.867 ± 0.18
ACAUAGCAAUAUUACGAACU	-0.612 ± 0.1	0.274 ± 0.12
UGUUAGCAAUAUUACGUGUA	-2.88 ± 0.16	-0.349 ± 0.1
AGCGAGCAAUAUUACGAUGG	-4.61 ± 0.42	-2.68 ± 0.24
UAAAAGCAAUAUUACGUUUA	-1.14 ± 0.099	-0.871 ± 0.099
CAGGAGCAAUAUUACGAGUU	-3.36 ± 0.43	
UUAAAGCAAUAUUACGACAG	0.285 ± 0.1	0.0597 ± 0.14
AACAAGCAAUAUUACGGAGG	-3.19 ± 0.19	-0.738 ± 0.15
GGUUAGCAAUAUUACGCACA	-0.431 ± 0.1	-0.339 ± 0.14
CAAUAGCAAUAUUACGUGGA	-3.29 ± 0.25	-2.92 ± 0.22
UUACAGCAAUAUUACGGCCG	-0.529 ± 0.16	-0.389 ± 0.16
GGGUAGCAAUAUUACGCCAG		-2.81 ± 0.47
CAUCAGCAAUAUUACGUCAG	-0.52 ± 0.062	0.43 ± 0.092
UAAAAGCAAUAUUACGUACG	-0.745 ± 0.084	0.35 ± 0.12
CUAGAGCAAUAUUACGUGUA	-4.57 ± 0.46	-2.41 ± 0.23
UUCUAGCAAUAUUACGCUAU	-4.08 ± 0.29	-1.42 ± 0.15
GUCGAGCAAUAUUACGGUAG	-2.02 ± 0.11	-2.54 ± 0.25
AGACAGCAAUAUUACGAGCG	-0.874 ± 0.071	-0.405 ± 0.081
CUAUAGCAAUAUUACGAGGG	-3.08 ± 0.21	-2.41 ± 0.27
GGUAAGCAAUAUUACGAUCA	-0.121 ± 0.1	-0.203 ± 0.1
UUGAAGCAAUAUUACGAACU	-1.61 ± 0.21	0.568 ± 0.2
ACCGAGCAAUAUUACGUCUC	-3.22 ± 0.32	-2.77 ± 0.48
UACGAGCAAUAUUACGAAGC	-2.71 ± 0.35	-0.927 ± 0.34
GCUAAGCAAUAUUACGAGAG	-2.38 ± 0.12	-1.27 ± 0.14

Source: the supplement of paper PMC7877785
